These results are taken from article PMC11870023, “A facile assay for zDHHC palmitoyl transferase activation elucidates effects of mutation and modification” (Journal of Lipid Research, 2025).

What all share (experiment): auto-S-palmitoylation of HEK293 membranes, SDS-PAGE fluorescence normalised to tag Western blot
(In general: Immunoblotting shows a protein as a band on a membrane.)

Substrate in series [1]: CC(C)(COP(=O)(O)OP(=O)(O)OC[C@H]1O[C@@H](n2cnc3c(N)ncnc32)[C@H](O)[C@@H]1OP(=O)(O)O)[C@@H](O)C(=O)NCCC(=O)NCCSC(=O)CCCCCCCCCCCCCCCNc1ccc([N+](=O)[O-])c2nonc12
In kind it is cell-based, Homo sapiens. Conditions: pH 7.4, 37 °C, labelled compound, covalent thioester at active-site Cys.

Substrate in series [2]: CC(C)(COP(=O)(O)OP(=O)(O)OC[C@H]1O[C@@H](n2cnc3c(N)ncnc32)[C@H](O)[C@@H]1OP(=O)(O)O)[C@@H](O)C(=O)NCCC(=O)NCCSC(=O)CCCCCCCCCCCCCCCNc1ccc([N+](=O)[O-])c2nonc12
In kind it is cell-based, Mus musculus. To be noted: pH 7.4, 37 °C, labelled compound, covalent thioester at active-site Cys.

Substrate in series [3]: CC(C)(COP(=O)(O)OP(=O)(O)OC[C@H]1O[C@@H](n2cnc3c(N)ncnc32)[C@H](O)[C@@H]1OP(=O)(O)O)[C@@H](O)C(=O)NCCC(=O)NCCSC(=O)CCCCCCCCCCCCCCCNc1ccc([N+](=O)[O-])c2nonc12
In kind it is cell-based, Homo sapiens. To be noted: pH 7.4, 37 °C, 2 min, labelled compound, covalent thioester at active-site Cys. From the text:
auto-S-palmitoylation of HEK293 membranes, SDS-PAGE fluorescence normalised to tag Western blot on human zDHHC2 | neither S306 F nor M356I mutation of zDHHC2 within the C-terminal cytoplasmic tail

Substrate in series [4]: CC(C)(COP(=O)(O)OP(=O)(O)OC[C@H]1O[C@@H](n2cnc3c(N)ncnc32)[C@H](O)[C@@H]1OP(=O)(O)O)[C@@H](O)C(=O)NCCC(=O)NCCSC(=O)CCCCCCCCCCCCCCCNc1ccc([N+](=O)[O-])c2nonc12
In kind it is biochemical, Mus musculus. Conditions: pH 7.4, 37 °C, 2 min, labelled compound, covalent thioester at active-site Cys134.

Substrate in series [5]: CC(C)(COP(=O)(O)OP(=O)(O)OC[C@H]1O[C@@H](n2cnc3c(N)ncnc32)[C@H](O)[C@@H]1OP(=O)(O)O)[C@@H](O)C(=O)NCCC(=O)NCCSC(=O)CCCCCCCCCCCCCCCNc1ccc([N+](=O)[O-])c2nonc12
In kind it is cell-based, Homo sapiens. To be noted: pH 7.4, 37 °C, 2 min, labelled compound, covalent thioester at active-site Cys. From the text: auto-S-palmitoylation of HEK293 membranes, SDS-PAGE fluorescence normalised to tag Western blot on human zDHHC14 | A373Y mutation within the N-terminal cytoplasmic tail of zDHHC14 (Fig. 4A) had no effect
This is another data set of the same source.

The term Km denotes the substrate concentration at which the rate is half of its maximum.

Where a chain is given by its changes, count along the chain named. Names and notes keep the numbering of the source.

B1: human zDHHC4 (Homo sapiens) (protein)
chain: MDFLVLFLFYLASVLMGLVLICVCSKTHSLKGLARGGAQIFSCIIPECLQRAVHGLLHYLFHTRNHTFIVLHLVLQGMVYTEYTWEVFGYCQELELSLHYLLLPYLLLGVNLFFFTLTCGTNPGIITKANELLFLHVYEFDEVMFPKNVRCSTCDLRKPARSKHCSVCNWCVHRFDHHCVWVNNCIGAWNIRYFLIYVLTLTASAATVAIVSTTFLVHLVVMSDLYQETYIDDLGHLHVMDTVFLIQYLFLTFPRIVFMLGFVVVLSFLLGGYLLFVLYLAATNQTTNEWYRGDWAWCQRCPLVAWPPSAEPQVHRNIHSHGLRSNLQEIFLPAFPCHERKKQE
notes: full length, His6-Myc tag kept (pCEpuro-His6-Myc-1), HEK293 membrane fraction
Turning to B1, the Km in series [1] (5 min) came to 9.68 ± 2.34 µM.

B2: mouse zDHHC14 (Mus musculus) (protein)
chain: MPPGGGGPMKDCEYSQISTHSSSPMESPHKKKKIAARRKWEVFPGRNKFFCNGRIMMARQTGVFYLTLILILVTSGLFFAFDCRYLAEKITPAIPVVGGILFFFVMGTLLRTSFSDPGVLPRATPDEAADLERQIDIANGTSSGGYRPPPRTKEVVINGQTVKLKYCFTCKIFRPPRASHCSLCDNCVEQFDHHCPWVGNCVGKRNYRFFYMFILSLSFLTVFIFAFVITHVIHRSQQKGFLDALKDSPASVLEAVICFFSVWSIIGLSGFHTYLISSNQTTNEDIKGSWSNKRGKENYNPYSYGNIFTNCCVALCGPISPSLIDRRGYVQPDTPQPAAPSNGITMYGATQSQSDMCDQDQCIQSTKFVLQAAATPLLQSEPSLTSEELHMPGKPGLGTPCASLTLGQPTPPSSMPNLATEATLSDIMPLKDEHGGHQFLTPDEAPSPPRMLGAGSPLAHSRTMHMLGLASQDSLHEDSVRGLVKLSSV
notes: full length, HA tag kept (pEF-Bos-HA), HEK293 membrane fraction
For the protein B2, in series [2], the Km came out at 0.98 ± 0.15 µM.

B3: mouse zDHHC2 (Mus musculus) (protein)
chain: MAPSGSGGVRRRCRRVLYWIPVVFISLLLGWSYYAYAIQLCIVSMENIGEQVVCLMAYHLLFAMFVWSYWKTIFTLPMNPSKEFHLSYAEKELLEREPRGEAHQEVLRRAAKDLPIYTRTMSGAIRYCDRCQLIKPDRCHHCSVCDKCILKMDHHCPWVNNCVGFSNYKFFLLFLAYSLLYCLFIAATDLQYFIRFWTNGLPDTQAKFHIMFLFFAAAMFSVSLSSLFGYHCWLVSKNKSTLEAFRNPVFRHGTDKNGFSLGFSKNMRQVFGDEKKYWLLPVFSSQGDGCSFPTCLVNQDPEQPSTPAGLNSTVKNPENHQFPAKPLRESQSHLLKDSQTWTESSANPGKGKAGMSNPALTMENET
notes: as for B2
For the protein B3, the Km in series [2] worked out at 2.86 ± 0.78 µM.

B4: human zDHHC2 (Homo sapiens; S306F) (protein)
chain: MAPSGPGSSARRRCRRVLYWIPVVFITLLLGWSYYAYAIQLCIVSMENTGEQVVCLMAYHLLFAMFVWSYWKTIFTLPMNPSKEFHLSYAEKDLLEREPRGEAHQEVLRRAAKDLPIYTRTMSGAIRYCDRCQLIKPDRCHHCSVCDKCILKMDHHCPWVNNCVGFSNYKFFLLFLAYSLLYCLFIAATDLQYFIKFWTNGLPDTQAKFHIMFLFFAAAMFSVSLSSLFGYHCWLVSKNKSTLEAFRSPVFRHGTDKNGFSLGFSKNMRQVFGDEKKYWLLPIFSSLGDGCSFPTCLVNQDPEQAFTPAGLNSTAKNLENHQFPAKPLRESQSHLLTDSQSWTESSINPGKCKAGMSNPALTMENET
notes: as for B1
In the case of B4, the Km in series [3] stood at 3.36 ± 0.73 µM.

B5: human zDHHC2 (Homo sapiens) (protein)
chain: B4 chain with F306S
notes: as for B1
B5: the Km in series [1] (2 min) came out at 4.46 ± 0.49 µM.

B6: human zDHHC2 (Homo sapiens; M356I) (protein)
chain: B4 chain with F306S, M356I
notes: as for B1
As for B6, in series [3], the Km turned out to be 4.59 ± 0.89 µM.

B7: mouse zDHHC3 (Mus musculus) (protein)
chain: MMLIPTHHFRDIERKPEYLQPEKCAPPPFPGPAGAMWFIRDGCGIACAIVTWFLVLYAEFVVLFVMLVPSRDYAYSIINGIVFNLLAFLALASHCRAMLTDPGAVPKGNATKEFIESLQLKPGQVVYKCPKCCSIKPDRAHHCSVCKRCIRKMDHHCPWVNNCVGENNQKYFVLFTMYIALISLHALIMVGFHFLHCFEEDWTKCSSFSPPTTVILLILLCFEALLFLIFTSVMFGTQVHSICTDETGIEQLKKEERRWAKKTKWMNMKAVFGHPFSLGWASPFATPDQGKADPYQYVV
notes: as for B2
For B7, the Km in series [2] was 6.83 ± 0.98 µM.

B8: HA-tagged mouse zDHHC5 (Mus musculus) (protein)
chain: MPAESGKRFKPSKYVPVSAAAIFLVGATTLFFAFTCPGLSLNVSPAVPIYNAIMFLFVLANFSMATFMDPGIFPRAEEDEDKEDDFRAPLYKTVEIKGIQVRMKWCATCRFYRPPRCSHCSVCDNCVEEFDHHCPWVNNCIGRRNYRYFFLFLLSLTAHIMGVFGFGLLYVLYHIEELSGVRTAVTMAVMCVAGLFFIPVAGLTGFHVVLVARGRTTNEQVTGKFRGGVNPFTNGCCNNVSRVLCSSPAPRYLGRPKKEKTIVIRPPFLRPEVSDGQITVKIMDNGIQGELRRTKSKGSLEITESQSADAEPPPPPKPDLSRYTGLRTHLSLATNEDSSLLGKDSPPTPTMYKYRPGYSSSSTSAAMPHSSSAKLSRGDSLKEPTSIADSSRHPSYRSEPSLEPESFRSPTFGKSFHFDPLSSGSRSSSLKSAQGTGFELGQLQSIRSEGTTSTSYKSLANQTRNGSLSYDSLLTPSDSPDFESVQAGPEPDPPLGYTSPFLSARLAQQREAERHPRLLPTGPPHREPSPVRYDNLSRHIVASLQEREKLLRQSPPLAGREEEPGLGDSGIQSTPGSGHAPRTSSSSDDSKRSPLSKTPLGRPAVPRFGKPDGLRSRGLGSPEPGTTAPYLGRSISYSSQKAPSGVSETEEVALQPLLTPKDEVQLKTTYSKSNGQPKSIGSASPGPGQPPLSSPTRGGVKKVSGVGGTTYEISV
notes: full length, HA tag kept (pEF-Bos-HA), overexpressed in HEK293 cells, native membrane fraction; 78 kDa band
Regarding B8, the Km in series [4] turned out to be 3.59 ± 0.29 µM.

B9: HA-tagged mouse zDHHC5 (Mus musculus; C236S/C237S/C245S) (protein)
chain: B8 chain with C236S, C237S, C245S
notes: as for B8
As for B9, the Km in series [4] was 17.95 ± 11.12 µM.

B10: human zDHHC14 (Homo sapiens) (protein)
chain: MPPGGGGPMKDCEYSQISTHSSSPMESPHKKKKIAARRKWEVFPGRNKFFCNGRIMMARQTGVFYLTLVLILVTSGLFFAFDCPYLAVKITPAIPAVAGILFFFVMGTLLRTSFSDPGVLPRATPDEAADLERQIDIANGTSSGGYRPPPRTKEVIINGQTVKLKYCFTCKIFRPPRASHCSLCDNCVERFDHHCPWVGNCVGKRNYRFFYMFILSLSFLTVFIFAFVITHVILRSQQTGFLNALKDSPASVLEAVVCFFSVWSIVGLSGFHTYLISSNQTTNEDIKGSWSNKRGKENYNPYSYGNIFTNCCVALCGPISPSLIDRRGYIQPDTPQPAAPSNGITMYGATQSQSDMCDQDQCIQSTKFVLQAAATPLLQSEPSLTSDELHLPGKPGLGTPCASLTLGPPTPPASMPNLAEATLADVMPRKDEHMGHQFLTPDEAPSPPRLLAAGSPLAHSRTMHVLGLASQDSLHEDSVRGLVKLSSV
notes: as for B1
As to B10, the Km in series [1] (2 min) was determined as 1.78 ± 0.32 µM.

B11: human zDHHC14 (Homo sapiens; A373Y) (protein)
chain: B10 chain with A373Y
notes: as for B1
Consider B11, for which the Km in series [5] turned out to be 1.72 ± 0.50 µM.

B12: mouse zDHHC4 (Mus musculus) (protein)
chain: MDFLVLFLFYLAFLLICVVLICIFTKSQRLKAVVLGGAQVCSRVIPQCLQRAVQTLLHQLFHTRHPTFIVLHLLLQGLVYAEYTCEVFGYCRELEFSLPYLLLPYVLLSVNLVFFTLTCAANPGTITKANESFLLQVYKFDDVMFPKNSRCPTCDLRKPARSKHCRLCDRCVHRFDHHCVWVNNCIGAWNTRYFLIYLLTLTASAATIATVTAAFLLRLVTVSDLYQETYLDDVGHFQAVDTVFLIQHLFLAFPRIVFLLGFVIVLSMLLAGYLCFALYLAATNQTTNEWYKGDWAWCQRWPLVAWSPSAEPRIHQNIHSHGFRSNLREIFLPATPSYKKKEK
notes: as for B2
As to B12, the Km in series [2] was 0.69 ± 0.13 µM.
